Experimental data reported in patent publication US20070093415A1.
Read-outs that look alike come from different tables or passages of the source.

Legend:
[1] = molecular target: Aβ1-40 amyloid (amyloid form of the Aβ1-40 peptide); experiment: ELISA on immobilized Aβ1-40 amyloid, anti-Thio detection
[2] = molecular target: Aβ1-40 amyloid (amyloid form of the Aβ1-40 peptide); experiment: as above; remark: listed apart in the source

Thio (recombinant thioredoxin without the Aβ-peptide binding sequence), sequence (P0AA25 2-109): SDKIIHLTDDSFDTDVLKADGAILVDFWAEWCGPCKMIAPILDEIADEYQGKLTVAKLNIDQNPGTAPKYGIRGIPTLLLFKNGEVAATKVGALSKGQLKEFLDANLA

Substance: Thio (recombinant thioredoxin without the Aβ-peptide binding sequence) (from UniProt P0AA25 2-109)
- concentration below which no binding was seen [1]: > 200 µM
- concentration below which no binding was seen [2]: > 100 µM
